Values quoted from earlier work in patent publication US20250341526A1, “NOVEL DYES” (Quantum-Si Incorporated, priority 2024, published 2025).

tested on: amino acid at a terminal position of a polypeptide; settings: Table 1, ClpS proteins; amino acid at terminal position; inferred from literature and/or demonstrated by the inventors; cited from earlier work

Molecule	Binding Pref.
PS551: ClpS amino acid recognition protein, SEQ ID NO: 65 (protein, listed as Rubrobacter indicoceani) MPSAAPAKPKTKRQSRTQGMPPYNVVLLDDDDHTYGYVIEMLNKVFGHPPEKGFELATEVDKNGRVIVMTTNLEVAELKRDEVHAFGPDPLMPRSKGSMSAVVERAG	I, L, V
PS559: ClpS amino acid recognition protein, SEQ ID NO: 73 (protein, listed as Planctomycetaceae bacterium) MNQAAISPNPDIKPNPSTHKKRASQRQPRYHVILWNDNDHTYHYVVTMLQKLFGHPPRTGIKMATEVDKKGKVIVLTTSREHAELKRDQIHAFGADKLIRRSKGAMAASIEPES	I, L, V
PS547: ClpS amino acid recognition protein, SEQ ID NO: 61 (protein, listed as Gemmataceae bacterium) MGFPTDFRQSIEISTPLGSQQPRFSNASSEPALADPVLVINPRIQPRYHVILLNDDDHTYRYVIEMMLIVFGHPPEKGFLIAKEVDKAGRAICLTTSLEHAEFKQEQVHAYGADPYFGPKCKGSMTAVLEPAE	I, L, V
PS553: ClpS amino acid recognition protein, SEQ ID NO: 67 (protein, listed as Planctomycetes bacterium) MPASASAVTEPPVSLPEAAAPRPKDRPKRQPRYHVILWNDDDHTYQYVVAMLRQLFGHPPEKGFTLAKQVDKDGRVVVLTTTKEHAELKRDQIHAFGADRLLARSKGSMSASIEPEASTG	I, L, V
PS557: ClpS amino acid recognition protein, SEQ ID NO: 71 (protein, listed as Planctomycetia bacterium) MPTAASATESAIEDTPAPARPEVDGRTKPKRQPRYHVVLWNDDDHTYQYVVVMLQSLFGHPPERGYRLAKEVDTQGRVIVLTTTREHAELKRDQIHAFGYDRLLARSKGSMKASIEAEE	I, L, V
PS433: ClpS amino acid recognition protein, SEQ ID NO: 56 (protein) MMSSLKECSIQALPSLDEKTKTEEDLSVPWKVIVLNDPVNLMSYVVMVFRKVFGYNENKATKHMMEVHQLGKSVLWTGQREEAECYAYQLQRWRLQTILEKDD	F, Y, W, L
PS555: ClpS amino acid recognition protein, SEQ ID NO: 69 (protein, listed as Planctomycetes bacterium) MADSAQTGVAEPIQETLRRRKLRDDRRPKRQPPYHVILWNDNDHTYAYVVVMLMQLFGYPAEKGYQLASEVDTQGRAVVLTTTKEHAELKRDQIHAYGKDGLIEKCKGSMWATIEPAPGE	I, L, V
PS424: ClpS amino acid recognition protein, SEQ ID NO: 47 (protein) MSVETIEKRSTTRKLAPQYRVLLHNDDYNSMEYVVQVLMTSVPSITQPQAVNIMMEAHNSGLALVITCAQEHAEFYCETLKGHGLSSTIEPD	F, Y, W
PS558: ClpS amino acid recognition protein, SEQ ID NO: 72 (protein, listed as Planctomycetia bacterium) MTATTADPDRTTAEKTTKKARRSGQPKRQPRYHVILWNDNDHTYQYVVAMLQQLFGHPATTGLKLATEVDRTGRAVILTTTREHAELKRDQIHAFGADRLLARSKGAMSASIEPEAE	I, L, V
PS426: ClpS amino acid recognition protein, SEQ ID NO: 49 (protein) MSIIEKTQENVAILEKVSINHEIILYNDDVNTFDHVIETLIRVCNHEELQAEQCAILVHYTGKCAVKTGSFDELQPLCLALLDAGLSAEIT	F, Y, W, L
PS430: ClpS amino acid recognition protein, SEQ ID NO: 53 (protein) MQPFEETYTDVLDEVVDTDVHNLVVFNDDVNTFDHVIETLIDVCKHTPEQAEQCTLLIHYKGKCSVKNGSWEELVPMRNEICRRGISAEVLK	F, Y, W, L
PS550: ClpS amino acid recognition protein, SEQ ID NO: 64 (protein, listed as Planctomycetes bacterium) MPTFTEPEVVNDTRILPPYHVILLNDDDHTYEYVIHMLQTLFGHPQERGFQLAVEVDKKGKAIVFTTSKEHAEFKRDQIHAFGADPLSSKNCKGSMSAVIEPSF	I, L, V
PS548: ClpS amino acid recognition protein, SEQ ID NO: 62 (protein, listed as Gemmataceae bacterium) MSDTITLPEEKTDVRTKRQPPYHVILLNDDDHTYQYVIYMLQTLFGHPPETGFKMAQEVDKTGRVIVDTTSLERAELKRDQIHAFGPDPYIERCKGSMSAMIEPSE	I, L, V
PS425: ClpS amino acid recognition protein, SEQ ID NO: 48 (protein) MTHYFSNILRDQESPKINPKELEQIDVLEEKEHQIILYNDDVNTFEHVIDCLVKICEHNYLQAEQCAYIVHHSGKCSVKTGSLDELVPKCNALLEEGLSAEVV	F, Y, W, L
PS556: ClpS amino acid recognition protein, SEQ ID NO: 70 (protein, listed as Blastopirellula marina) MGDSNTSVAEPGEVTVVTTKPAPKKAKPKRQPKYHVVLWNDDDHTYEYVILMMHELFGHPVEKGFQIAKTVDADGRAICLTTTKEHAELKRDQIHAYGKDELIARCRGSMSSTIEPEC	I, L, V
PS545: ClpS amino acid recognition protein, SEQ ID NO: 59 (protein, listed as Planctomycetales bacterium) MSEPMTLPAIPQPRLKERTQRQPPYNVILLNDDDHSYEYVIAMLQVLFGYPREKGYQMAKEVDSTGRVILLTTTREHAELKQEQIHAFGPDPLMARCQGSMTAVIEPAV	I, L, V
PS434: ClpS amino acid recognition protein, SEQ ID NO: 57 (protein) MSRLPWKQEAKFAATVIIDFPDATLEAPTIEKKEATEQQIEMPWNVVVHNDPVNLMSYVTMVFQRVFGYPRERAEKHMLEVHHSGRSILWSGLRERAELYVQQLHGYLLLATIEKTV	F, Y, W, L
PS546: ClpS amino acid recognition protein, SEQ ID NO: 60 (protein, listed as Planctomycetia bacterium) MSDTITLPGRPEVERDERTRRQPPYNVILHNDDDHTFEYVIVMLNQLFGYPPEKGYEMAKEVHLNGRVIVLTTSKEHAELKRDQIHAFGPDPFSSKDCKGSMSASIEPAY	I, L, V
PS435: ClpS amino acid recognition protein, SEQ ID NO: 58 (protein) MTLSVALGPDTQESTQTGTAVSTDTLTAPDIPWNLVIWNDPVNLMSYVSYVFQSYFGYSETKANKLMMEVHKKGRSIVAHGSKEQVEQHAVAMHGYGLWATVEKATGGNSGGGKSGGPGKGKGKRG	F, Y, W, L
PS372: ClpS amino acid recognition protein, SEQ ID NO: 5 (protein) MAFPARGKTAPKNEVRRQPPYNVILLNDDDHTYRYVIEMLQKIFGFPPEKGFQIAEEVDRTGRVILLTTSKEHAELKQDQVHSYGPDPYLGRPCSGSMTCVIEPAV	L, I, V
PS427: ClpS amino acid recognition protein, SEQ ID NO: 50 (protein) MSTKEKVKERVREKEAISFNNEIIVYNDDVNTFDHVIETLIRVCNHTPEQAEQCSLIVHYNGKCTVKTGSMDKLKPQCTQLLEAGLSAEIV	F, W
PS549: ClpS amino acid recognition protein, SEQ ID NO: 63 (protein, listed as Planctomycetes bacterium) MSESITTLPKKSRRLKEEEEQKTKRQPPYNVILLNDDDHTFEYVIFMLQKLFGHPPERGMQMAKEVHTTGRVIVMTTALELAELKRDQIHAFGPDPLIDRCKGSMSATIEPAPI	I, L, V
PS554: ClpS amino acid recognition protein, SEQ ID NO: 68 (protein, listed as Planctomycetia bacterium) MSDSASATVEVQADPPADATARSQPTPARSTGSKPKRQPRYHVVLWNDDDHTYEYVIAMLRRLFGIEPEKGFRIAEEVDQSGRAVVLTTTREHAELKRDQIHAFGADRLLARSKGSMSASIEPEA	I, L, V
PS432: ClpS amino acid recognition protein, SEQ ID NO: 55 (protein) MIGVEARTSSAPELAIETEIRLAGLWHVIVINDPVNLMSYVVMVLRKIFGFDDTKARKHMLEVHENGRSIVWSGEREPAEAYANTLHQWHLSAVLERDETD	F, W
PS371: ClpS amino acid recognition protein, SEQ ID NO: 4 (protein) MATETIERPRTRDPGSGLGGHWLVIVLNDDHNTFDHVAKTLARVIPGVTVDDGYRFADQIHQRGQAIVWRGPKEPAEHYWEQLQDAGLSMAPLERH	F, Y, W, L
PS560: ClpS amino acid recognition protein, SEQ ID NO: 74 (protein, listed as Planctomycetes bacterium) MTETITTPAERTQTQAEPRSDRAWLWNVVLLDDDEHTYEYVIRMLHTLFGMPVERAFRLAEEVDARGRAVVLTTHKEHAELKRDQVHAFGKDALIASCAGSMSAVLEPAECGSDDED	I, L, V
PS552: ClpS amino acid recognition protein, SEQ ID NO: 66 (protein, Fimbriiglobus ruber) MSKTSTLPEVESESAQKLKYQPPYHVILLNDDDHSYVYVITMLKELFGHPEQKGYQLADAVDKQGRAIVFTTTREHAELKQEQIHAYGPDPTIPRCKGAMTAVIEPAE	I, L, V
